# Target: HLA-A*02:01 (Homo sapiens, UniProt P04439, D140Y/D185E/D98H/E176V/E277Q/G131W/G231S/I119V/I121R/I166T/I218V/L300P/L318F/N151K/N90K/P208A/P217A/Q86G/Q94H/R138H/R169H/T345S)
# Assay: MHC binding assay (UV-ligand exchange, beta2m ELISA)
# Conditions: binding to HLA-A*02:01 ranged by peptide exchange yield (UV-ligand exchange, β2m ELISA)
# Description: Candidate peptides for T cell based therapies according to the present invention were further tested for their MHC binding capacity (affinity). The individual peptide-MHC complexes were produced by UV-ligand exchange, where a UV-sensitive peptide is cleaved upon UV-irradiation, and exchanged with the peptide of interest as analyzed. Only peptide candidates that can effectively bind and stabilize the peptide-receptive MHC molecules prevent dissociation of the MHC complexes. To determine the yield of the exchange reaction, an ELISA was performed based on the detection of the light chain (β2m) of stabilized MHC complexes. The assay was performed as generally described in Rodenko et al. (Rodenko et al., 2006).
# 96 well MAXISorp plates (NUNC) were coated over night with 2 ug/ml streptavidin in PBS at room temperature, washed 4× and blocked for 1 h at 37° C. in 2% BSA containing blocking buffer. […] Peptide-MHC monomers of the UV-exchange reaction were diluted 100 fold in blocking buffer. Samples were incubated for 1 h at 37° C., washed four times, incubated with 2 ug/ml HRP conjugated anti-β2m for 1 h at 37° C., washed again and detected with TMB solution that is stopped with […]. Absorption was measured at 450 nm. Candidate peptides that show a high exchange yield (preferably higher than 50%, most preferred higher than 75%) are generally preferred for a generation and production of antibodies or fragments thereof, and/or T cell receptors or fragments thereof, as they show sufficient avidity to the MHC molecules and prevent dissociation of the MHC complexes.
row,Substance,Peptide exchange
1,184 (YLMDINGKMWL; listed as Homo sapiens) [compound 184],“+++” (≥50 = +++)
2,142 (FLFATPVFI; listed as Homo sapiens) [compound 142],“+++” (≥50 = +++)
3,307 (ALPVSLPQI; listed as Homo sapiens) [compound 307],“+++” (≥50 = +++)
4,329 (FLVTLNNVEV; listed as Homo sapiens) [compound 329],“++++” (≥75% = ++++)
5,172 (VLYSYTIITV; listed as Homo sapiens) [compound 172],“++” (≥20% = ++)
6,271 (LVYPLELYPA; listed as Homo sapiens) [compound 271],“+++” (≥50 = +++)
7,30 (LILDWVPYI; listed as Homo sapiens) [compound 30],“+++” (≥50 = +++)
8,13 (YLMDESLNL; listed as Homo sapiens) [compound 13],“+++” (≥50 = +++)
9,261 (YVLEFLEEI; listed as Homo sapiens) [compound 261],“++” (≥20% = ++)
10,232 (ALLEAQDVELYL; listed as Homo sapiens) [compound 232],“++” (≥20% = ++)
11,289 (VLLEIEDLQV; listed as Homo sapiens) [compound 289],“++++” (≥75% = ++++)
12,9 (GAAKDLPGV; listed as Homo sapiens) [compound 9],“++” (≥20% = ++)
13,121 (GVVDPRAISVL; listed as Homo sapiens) [compound 121],“++” (≥20% = ++)
14,164 (ALLPQPKNLTV; listed as Homo sapiens) [compound 164],“+++” (≥50 = +++)
15,32 (KLDDLTQDLTV; listed as Homo sapiens) [compound 32],“++” (≥20% = ++)
16,278 (QLLDVVLTI; listed as Homo sapiens) [compound 278],“++” (≥20% = ++)
17,252 (LLIGTDVSL; listed as Homo sapiens) [compound 252],“+++” (≥50 = +++)

row,Substance,Peptide exchange
1,28 (QLLDETSAITL; listed as Homo sapiens) [compound 28],“+++” (≥50 = +++)
2,231 (FLSPQQPPLLL; listed as Homo sapiens) [compound 231],“++” (≥20% = ++)
3,197 (ALGPEGGRV; listed as Homo sapiens) [compound 197],“++” (≥20% = ++)
4,1 (SLMEPPAVLLL; listed as Homo sapiens) [compound 1],“+++” (≥50 = +++)
5,297 (VLADIELAQA; listed as Homo sapiens) [compound 297],“+++” (≥50 = +++)
6,68 (SLMELPRGLFL; listed as Homo sapiens) [compound 68],“++++” (≥75% = ++++)
7,104 (STMEQNFLL; listed as Homo sapiens) [compound 104],“++++” (≥75% = ++++)
8,230 (ILVDWLVEV; listed as Homo sapiens) [compound 230],“+” (≥10% = +)
9,160 (FLFDEEIEQI; listed as Homo sapiens) [compound 160],“+++” (≥50 = +++)
10,92 (YLIPFTGIVGL; listed as Homo sapiens) [compound 92],“++” (≥20% = ++)
11,171 (LLLPLQILL; listed as Homo sapiens) [compound 171],“+++” (≥50 = +++)
12,51 (LLPDLEFYV; listed as Homo sapiens) [compound 51],“++++” (≥75% = ++++)
13,309 (GLFDGVPTTA; listed as Homo sapiens) [compound 309],“+++” (≥50 = +++)
14,107 (FLQPVDDTQHL; listed as Homo sapiens) [compound 107],“+++” (≥50 = +++)
15,135 (ALSEVDFQL; listed as Homo sapiens) [compound 135],“+++” (≥50 = +++)
16,178 (ALTEIAFVV; listed as Homo sapiens) [compound 178],“++++” (≥75% = ++++)

# Other lines, results leading:
row,Peptide exchange,Substance
1,“+++” (≥50 = +++),361 (ALYELEGTTV; listed as Homo sapiens) [compound 361]
2,“+++” (≥50 = +++),488 (FLAEDPKVTL; listed as Homo sapiens) [compound 488]
3,“+++” (≥50 = +++),519 (GLLHLTLLL; listed as Homo sapiens) [compound 519]
4,“+++” (≥50 = +++),396 (ALLPDLPAL; listed as Homo sapiens) [compound 396]
5,“++” (≥20% = ++),505 (SLAPGDVVRQV; listed as Homo sapiens) [compound 505]
6,“++++” (≥75% = ++++),347 (SLFKHDPAAWEA; listed as Homo sapiens) [compound 347]
7,“+++” (≥50 = +++),465 (QLCDLNAEL; listed as Homo sapiens) [compound 465]
8,“++++” (≥75% = ++++),611 (YLLDDGTLVV; listed as Homo sapiens) [compound 611]
9,“+++” (≥50 = +++),456 (LLIGHLERV; listed as Homo sapiens) [compound 456]
10,“+++” (≥50 = +++),480 (ALLEDSCHYL; listed as Homo sapiens) [compound 480]
11,“++” (≥20% = ++),409 (LLDAMNYHL; listed as Homo sapiens) [compound 409]
12,“++” (≥20% = ++),447 (QLVPALAKV; listed as Homo sapiens) [compound 447]
13,“+++” (≥50 = +++),598 (FLFPHSVLV; listed as Homo sapiens) [compound 598]
14,“+++” (≥50 = +++),472 (KLLEVSDDPQV; listed as Homo sapiens) [compound 472]
15,“+++” (≥50 = +++),448 (NLLETKLQL; listed as Homo sapiens) [compound 448]
16,“++” (≥20% = ++),434 (KVSNSGITRV; listed as Homo sapiens) [compound 434]
17,“++” (≥20% = ++),402 (VLFSGALLGL; listed as Homo sapiens) [compound 402]
18,“++++” (≥75% = ++++),552 (GLLDLPFRVGV; listed as Homo sapiens) [compound 552]
19,“++” (≥20% = ++),526 (RLAEVGQYEQV; listed as Homo sapiens) [compound 526]
20,“+++” (≥50 = +++),450 (FMIDASVHPTL; listed as Homo sapiens) [compound 450]
21,“++” (≥20% = ++),516 (AVGPASILKEV; listed as Homo sapiens) [compound 516]
22,“+++” (≥50 = +++),464 (ALNDCIYSV; listed as Homo sapiens) [compound 464]
23,“++” (≥20% = ++),382 (ALQNYIKEA; listed as Homo sapiens) [compound 382]
24,“++” (≥20% = ++),570 (ALANQIPTV; listed as Homo sapiens) [compound 570]
25,“+++” (≥50 = +++),545 (LLADLLHNV; listed as Homo sapiens) [compound 545]
26,“++++” (≥75% = ++++),602 (YLLEQIKLIEV; listed as Homo sapiens) [compound 602]
